Assay results as given in publication PMC9352680, “A comprehensive thermodynamic model for RNA binding by the Saccharomyces cerevisiae Pumilio protein PUF4”.

Molecular target: T1, PUF4 RNA-binding domain (Saccharomyces cerevisiae, UniProt P25339 537-888)
T1 sequence: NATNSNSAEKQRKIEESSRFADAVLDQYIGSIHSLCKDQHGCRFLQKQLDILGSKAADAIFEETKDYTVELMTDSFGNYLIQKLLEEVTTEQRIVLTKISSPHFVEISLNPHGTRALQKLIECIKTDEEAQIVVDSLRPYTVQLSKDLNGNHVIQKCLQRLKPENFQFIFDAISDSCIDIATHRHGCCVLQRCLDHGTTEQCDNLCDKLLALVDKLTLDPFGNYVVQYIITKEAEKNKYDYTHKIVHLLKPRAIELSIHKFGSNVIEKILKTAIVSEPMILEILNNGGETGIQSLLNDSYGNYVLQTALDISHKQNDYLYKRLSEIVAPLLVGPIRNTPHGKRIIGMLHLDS
Assay: Mg; RNA-MaP; 20 mM Na-HEPES pH 7.4, 30 mM KOAc, 0.75 mM MgCl2, 0.1% Tween-20, 5% glycerol, 0.1 mg/mL BSA, 2 mM DTT; 25 C; 0.0125-409.6 nM protein
Settings: tags: N-His6-TEV cleaved; C-SNAP kept, Cy3B-labelled; label: tethered on chip by stalled RNA polymerase

ACAAACGCUAUAUAUUAUUACAAAC (ssRNA) [Id_ii_S3_P4E.3_K4.2_C4.2_[C-2G]_[T-1C]_H4.2_A4.1_F4.1_T4.2_[G10T]] gave a Kd of 14.4 nM.

With ACAAACCUACACUAUAAUACAAAC (ssRNA) [Id_ii_S3_P3E.4_K3.3_C3.2_H3.3_A3.1_F3.1_T3.2_[T9A]_[A10T]] the Kd was > 2300 nM.

With ACAAACGUUAUAUAUUAUCACAAAC (ssRNA) [Id_ii_S3_P4E.3_K4.2_C4.2_[C-2G]_H4.2_A4.1_F4.1_T4.2_[G10T]_[T11C]] the Kd was 42.4 nM.

ACAAACCUACACUAUACUACAAAC (ssRNA) [Id_ii_S3_P3E.4_K3.3_C3.2_H3.3_A3.1_F3.1_T3.2_[T9C]_[A10T]] was tested, and the Kd was > 2300 nM.

In the case of ACAAACCCACACUAUACGACAAAC (ssRNA) [Id_ii_S3_P3E.4_K3.3_C3.2_[T-1C]_H3.3_A3.1_F3.1_T3.2_[T9C]_[A10G]], the Kd is reported as > 2300 nM.

For ACAAACGCUAUAUAUUACCACAAAC (ssRNA) [Id_ii_S3_P4E.3_K4.2_C4.2_[C-2G]_[T-1C]_H4.2_A4.1_F4.1_T4.2_[G10C]_[T11C]], the Kd was 27.1 nM.

In the case of ACAAACACUAUAUAUUAAAACAAAC (ssRNA) [Id_ii_S3_P4E.3_K4.2_C4.2_[C-2A]_[T-1C]_H4.2_A4.1_F4.1_T4.2_[G10A]_[T11A]], the Kd is reported as 34 nM.

Work on ACAAACGAUAUAUAUUAAUACAAAC (ssRNA) [Id_ii_S3_P4E.3_K4.2_C4.2_[C-2G]_[T-1A]_H4.2_A4.1_F4.1_T4.2_[G10A]] yielded a Kd of 40.7 nM.

ACAAACCUACACUAUAGAACAAAC (ssRNA) [Id_ii_S3_P3E.4_K3.3_C3.2_H3.3_A3.1_F3.1_T3.2_[T9G]] was tested, and the Kd was > 2300 nM.

ACAAACGAUAUAUAUUAAGACAAAC (ssRNA) [Id_ii_S3_P4E.3_K4.2_C4.2_[C-2G]_[T-1A]_H4.2_A4.1_F4.1_T4.2_[G10A]_[T11G]] was tested, and the Kd was 76.8 nM.

ACAAACCUACACUAUAUCACAAAC (ssRNA) [Id_ii_S3_P3E.4_K3.3_C3.2_H3.3_A3.1_F3.1_T3.2_[A10C]] gave a Kd of 1760 nM.

For UCUCUUUGUAUCAUUUUCUCUU (ssRNA) [Ib_S1_P5E.1_K5.1_C5.1_H5.1_A5.1_[T6C]_F5.1_[A10T]_T5.1], the Kd was 7.85 nM.

In the case of ACAAACGCUAUAUAUUAAUACAAAC (ssRNA) [Id_ii_S3_P4E.3_K4.2_C4.2_[C-2G]_[T-1C]_H4.2_A4.1_F4.1_T4.2_[G10A]], the Kd is reported as 19.9 nM.

Work on ACAAACGUUAUAUAUUACUACAAAC (ssRNA) [Id_ii_S3_P4E.3_K4.2_C4.2_[C-2G]_H4.2_A4.1_F4.1_T4.2_[G10C]] yielded a Kd of 58 nM.

Binder ACAAACUCUAUAUAUUAUGACAAAC (ssRNA) [Id_ii_S3_P4E.3_K4.2_C4.2_[C-2T]_[T-1C]_H4.2_A4.1_F4.1_T4.2_[G10T]_[T11G]] has a Kd of 14.5 nM.

ACAAACUAUAUAUAUUAACACAAAC (ssRNA) [Id_ii_S3_P4E.3_K4.2_C4.2_[C-2T]_[T-1A]_H4.2_A4.1_F4.1_T4.2_[G10A]_[T11C]] was tested, and the Kd was 32.9 nM.

In the case of ACAAACCCACACUAUAUUACAAAC (ssRNA) [Id_ii_S3_P3E.4_K3.3_C3.2_[T-1C]_H3.3_A3.1_F3.1_T3.2_[A10T]], the Kd is reported as 2120 nM.

Work on ACAAACAAUAUAUAUUAUCACAAAC (ssRNA) [Id_ii_S3_P4E.3_K4.2_C4.2_[C-2A]_[T-1A]_H4.2_A4.1_F4.1_T4.2_[G10T]_[T11C]] yielded a Kd of 70.9 nM.

ACAAACCUACACUAUAUGACAAAC (ssRNA) [Id_ii_S3_P3E.4_K3.3_C3.2_H3.3_A3.1_F3.1_T3.2_[A10G]] was tested, and the Kd was > 2300 nM.

For ACAAACCCACACUAUAGCACAAAC (ssRNA) [Id_ii_S3_P3E.4_K3.3_C3.2_[T-1C]_H3.3_A3.1_F3.1_T3.2_[T9G]_[A10C]], the Kd was > 2300 nM.

For ACAAACUAUAUAUAUUACGACAAAC (ssRNA) [Id_ii_S3_P4E.3_K4.2_C4.2_[C-2T]_[T-1A]_H4.2_A4.1_F4.1_T4.2_[G10C]_[T11G]], the Kd was 27.8 nM.

ACAAACACUAUAUAUUACUACAAAC (ssRNA) [Id_ii_S3_P4E.3_K4.2_C4.2_[C-2A]_[T-1C]_H4.2_A4.1_F4.1_T4.2_[G10C]] showed a Kd of 17.6 nM.

Binder ACAAACUUUAUAUAUUAUAACAAAC (ssRNA) [Id_ii_S3_P4E.3_K4.2_C4.2_[C-2T]_H4.2_A4.1_F4.1_T4.2_[G10T]_[T11A]] has a Kd of 18.1 nM.

Work on ACAAACGCUAUAUAUUACAACAAAC (ssRNA) [Id_ii_S3_P4E.3_K4.2_C4.2_[C-2G]_[T-1C]_H4.2_A4.1_F4.1_T4.2_[G10C]_[T11A]] yielded a Kd of 24.5 nM.

ACAAACAAUAUAUAUUAAAACAAAC (ssRNA) [Id_ii_S3_P4E.3_K4.2_C4.2_[C-2A]_[T-1A]_H4.2_A4.1_F4.1_T4.2_[G10A]_[T11A]] was tested, and the Kd was 108 nM.

For ACAAACCUACACUAUACAACAAAC (ssRNA) [Id_ii_S3_P3E.4_K3.3_C3.2_H3.3_A3.1_F3.1_T3.2_[T9C]], the Kd was 1880 nM.

Binder UCUCUUUGUAUGAUUCUCUCUU (ssRNA) [Ib_S1_P5E.1_K5.1_C5.1_H5.1_A5.1_[T6G]_F5.1_[A10C]_T5.1] has a Kd of 90 nM.

For ACAAACUCUAUAUAUUAUAACAAAC (ssRNA) [Id_ii_S3_P4E.3_K4.2_C4.2_[C-2T]_[T-1C]_H4.2_A4.1_F4.1_T4.2_[G10T]_[T11A]], the Kd was 15.5 nM.

ACAAACACUAUAUAUUAACACAAAC (ssRNA) [Id_ii_S3_P4E.3_K4.2_C4.2_[C-2A]_[T-1C]_H4.2_A4.1_F4.1_T4.2_[G10A]_[T11C]] gave a Kd of 29.6 nM.

With ACAAACAGUAUAUAUUAGAACAAAC (ssRNA) [Id_ii_S3_P4E.3_K4.2_C4.2_[C-2A]_[T-1G]_H4.2_A4.1_F4.1_T4.2_[T11A]] the Kd was 11.3 nM.

With ACAAACCUACACUAUAAAACAAAC (ssRNA) [Id_ii_S3_P3E.4_K3.3_C3.2_H3.3_A3.1_F3.1_T3.2_[T9A]] the Kd was > 2300 nM.

In the case of ACAAACAAUAUAUAUUAGCACAAAC (ssRNA) [Id_ii_S3_P4E.3_K4.2_C4.2_[C-2A]_[T-1A]_H4.2_A4.1_F4.1_T4.2_[T11C]], the Kd is reported as 11.9 nM.
